The source of these data is patent publication US20220008464A1.

This experiment has as its target TGFBR II (UniProt P37173). The experiment in a line: cell-based or functional assay.

Chain of TGFBR II (P37173 23-567): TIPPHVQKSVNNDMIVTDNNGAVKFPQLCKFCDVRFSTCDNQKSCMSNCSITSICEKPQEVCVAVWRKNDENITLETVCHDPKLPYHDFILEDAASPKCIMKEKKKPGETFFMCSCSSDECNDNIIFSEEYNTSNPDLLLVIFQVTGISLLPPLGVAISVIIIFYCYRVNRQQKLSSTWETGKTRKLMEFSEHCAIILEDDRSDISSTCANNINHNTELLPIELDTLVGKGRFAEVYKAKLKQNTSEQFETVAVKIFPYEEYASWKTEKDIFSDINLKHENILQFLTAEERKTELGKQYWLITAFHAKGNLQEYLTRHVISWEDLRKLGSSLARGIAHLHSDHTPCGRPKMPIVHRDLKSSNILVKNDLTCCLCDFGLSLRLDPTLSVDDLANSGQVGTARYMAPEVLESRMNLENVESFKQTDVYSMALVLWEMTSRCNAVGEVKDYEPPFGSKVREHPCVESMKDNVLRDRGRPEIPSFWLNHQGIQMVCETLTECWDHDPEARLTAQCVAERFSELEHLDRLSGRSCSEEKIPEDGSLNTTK

For “TGFβ1 (from UniProt P01137 279-390) (ligand)”, the decrease in release of IL-2 and IFN-γ by P4-CAR-T cells with 5 ng/ml TGFβ1 turned out to be 50%.
